{"source": "patent US6353153B1", "about": "“Enhanced transport with a plastid membrane transport protein” (priority 1996, dated 2002)", "molecules": {"B1": {"name": "Bce44B: plastid transport protein, Brassica napus 44 kDa chloroplast envelope protein, member of Com44/Cim44, encoded by SEQ ID NO:1 (protein)", "chain": "MQTAMKTMMNQMNTQNSQFNNPGFPTGAGAGAGSPFPFPFPPQTSPTTSPFQPQSQSSGATVDLTATKVDRPPVSKPQPTPIPPTKSIEVYKPSVVVEENKAMKEEKNYAFEDVSPEETTKESPFSNYEEVSETSAPKETRLFDDVLQNGAAPANGATASDVFQSLGAGKGWAGGSVEVLEKMIEYPTFQKMLYPHLPEEMRNPESFKWVRKNPQYRQQLQDMLNNMSESGEWDKRMTETLKNFDPNSPEVKQGFDQLGLTPEEVISKIMENPDVSMAFQNPRVEAALMDCSENPMNIMKYQNDKEVMDVFNKISQLFPGLTG"}}, "key": {"[1]": {"tested_on": "Arabidopsis thaliana", "assay": "Seed size of transgenic plants carrying the CaMV-Bce44B-NOS transgene", "type": "in vivo", "details": "primary generation of transgenic plants", "description": "Transgenic plants (Brassica napus, Arabidopsis thaliana and Lycopersicon esculentum) with altered plastid protein transport capacity were produced by introducing a transgene construct consisting of DNA encoding the Bce44B protein and a 5′ untranslated region immediately upstream of the Bce44B coding sequence. Expression of the construct was obtained by linking the cauliflower mosaic virus 35S promoter (Odell, J. T. et al. (1985) Nature 313:810) upstream. Transcriptional termination was facilitated by the gene encoding nopaline synthase (NOS) found in Agrobacterium Ti plasmids or their derivatives such as pBI101 (Clontech). Construction of the 35S CAMV-Bce44B-NOS transgene construct is diagrammed in FIG. 6.\nFor the seed transformation protocol (Feldmann, K., (1992) In: Methods in Arabidopsis Research (eds. C. Koncz, N. H. Chua, J. Schell) pp 274-289), 2.4 grams of Arabidopsis thaliana (ecotype Wassilewskija) seeds were surface sterilized for 8 minutes in 5.25% (wlv) sodium hypochlorite containing 0.15% (v/v) Tween 20, then rinsed 6-7 times with sterile water. The seeds were apportioned among 40 125 ml flasks containing 40 ml cocultivation medium (CCM) (1×MS salts, 40 g/l sucrose, 10 mg/l thiamine, […] pyridoxine, […] nicotinic acid and 100 mg/l inositol, pH 6.0 with KOH). […]"}, "[2]": {"tested_on": "β-lactamase transport in E. coli MM52 (secAts)", "assay": "Ampicillin resistance, colony formation in temperature-sensitive secA mutant strain MM52", "type": "cell-based, Escherichia coli", "details": "30° C. permissive temperature", "description": "The effects of Bce44B on β-lactamase transport were further tested in a temperature-sensitive secA (secAts) mutant bacterial strain (MM52, a gift from Dr. Jon Beckwith, Harvard Medical School, Boston Mass.) to provide further evidence that the expressed Bce44B component affected protein translocation in bacteria and that the protein transport enhancement was not due solely to the upregulation of the existing bacterial transport machinery such as SecA. See Example 17. The defective protein translocation phenotype in MM52 appears primarily when cells are subjected to temperatures above 30° C. Protein translocation slows down and comes to a halt upon shifting to temperatures above 30° C. […] Effects on protein transport can then be monitored in this strain by tracking the β-lactamase profiles at permissive and non-permissive temperatures.\nThe same Bce44B gene construct and control Oee1-Dhfr plasmid were introduced into MM52 and its wild type counterpart strain MC4100 (containing the wild-type SecA) via electroporation. The role of Bce44B in protein translocation was assessed as before using three different criteria: 1) the level of antibiotic resistance conferred; 2) the profile of transported versus precursor β-lactamase at permissive and non-permissive temperatures; and 3) the level of sensitivity of protein transport to sodium azide. […]"}}}
{"molecule": "B1", "values": [{"measurement": "seed size relative to wildtype counterparts or pEND4K-only control plants", "setting": "[1]", "result": "approximately twice"}, {"measurement": "ampicillin concentration up to which expressing cells form colonies", "setting": "[2]", "result": "up to 3 mg/ml"}]}
